Laboratory results from the Immune Epitope Database (IEDB).

Tests used:
[1] = target: HLA-B*18:01; test: IEDB peptide-MHC binding, purified MHC/competitive/radioactivity; ≥ and ≤ were set here for values at or beyond the usual limits of such assays
[2] = target: HLA-B*40:01; test: as above
[3] = target: HLA-B*40:02; test: as above
[4] = target: HLA-B*44:02; test: as above
[5] = target: HLA-B*44:03; test: as above
[6] = target: HLA-B*45:01; test: as above
[7] = target: HLA-B*40:01; test: IEDB peptide-MHC binding, purified MHC/competitive/radioactivity; filed as Kd, often an IC50 or EC50 that approximates it; ≥ and ≤ were set here for values at or beyond the usual limits of such assays; settings: source organism: Hepatitis B virus
[8] = target: HLA-B*45:01; test: as above
[9] = target: HLA-B*18:01; test: as above; settings: source organism: Hepatitis B virus
[10] = target: HLA-B*40:02; test: as above; settings: source organism: Plasmodium falciparum
[11] = source organism: Plasmodium falciparum
[12] = source organism: Hepatitis B virus
[13] = source organism: Human immunodeficiency virus 1
[14] = source organism: Hepatitis C virus (isolate HCV-K3a/650)

DEVDLYLLM showed an IC50 [1, 11] of 17 nM, an IC50 [2, 11] of 2920 nM and an IC50 [3, 11] of 1020 nM. The IC50 [4, 11] was 107 nM and the IC50 [5, 11] was 84 nM.
With RETVLEYLV the IC50 [2, 12] was 412 nM, the IC50 [3, 12] was 36 nM and the IC50 [5, 12] was 4830 nM. It also gave an IC50 [6, 12] of 205 nM.
VELLSFLPSDF gave an IC50 [1, 12] of 414 nM, an IC50 [3, 12] of 480 nM and an IC50 [4, 12] of 299 nM. For the same sequence, the IC50 [5, 12] was 412 nM, the Kd [7] was 5560 nM and the Kd [8, 12] was 10400 nM.
In the case of AENLYVTVF, the IC50 [2, 13] is reported as 17 nM, the IC50 [3, 13] is reported as 3.1 nM and the IC50 [4, 13] is reported as 39 nM. It also gave an IC50 [5, 13] of 47 nM and an IC50 [6, 13] of 69 nM.
NETPGIRYQY was tested, and the IC50 [1, 13] was 179 nM, the IC50 [2, 13] was ≥ 20000 nM and the IC50 [3, 13] was ≥ 20000 nM. It also gave an IC50 [4, 13] of 75 nM, an IC50 [5, 13] of 62 nM and a Kd [8, 13] of 10600 nM.
GEIPFYGKAI showed an IC50 [2, 14] of 146 nM, an IC50 [3, 14] of 87 nM and an IC50 [5, 14] of 113 nM. For the same sequence, the Kd [8, 14] was 5400 nM.
Work on WEFVNTPPL yielded an IC50 [1, 13] of 5.9 nM, an IC50 [2, 13] of 2.5 nM and an IC50 [3, 13] of 8.6 nM. It also gave an IC50 [4, 13] of 72 nM, an IC50 [5, 13] of 378 nM and a Kd [8, 13] of 5210 nM.
TERQANFL gave an IC50 [1, 13] of 304 nM, an IC50 [2, 13] of 223 nM and an IC50 [3, 13] of 23 nM. For the same sequence, the IC50 [4, 13] was 9050 nM, the IC50 [5, 13] was 2210 nM and the Kd [8, 13] was 9720 nM.
SENERGYYI showed an IC50 [1, 11] of 301 nM, an IC50 [2, 11] of 3730 nM and an IC50 [3, 11] of 227 nM. It also gave an IC50 [4, 11] of 150 nM, an IC50 [5, 11] of 91 nM and an IC50 [6, 11] of 336 nM.
Sequence IEAEVIPA has an IC50 [1, 13] of 61 nM, an IC50 [2, 13] of 5950 nM and an IC50 [3, 13] of 62 nM. It also gave an IC50 [4, 13] of 859 nM, an IC50 [5, 13] of 6400 nM and a Kd [8, 13] of 347 nM.
Sequence AENLWVTVY has an IC50 [1, 13] of 51 nM, an IC50 [2, 13] of 3370 nM and an IC50 [3, 13] of 90 nM. For the same sequence, the IC50 [4, 13] was 66 nM, the IC50 [5, 13] was 160 nM and the IC50 [6, 13] was 68 nM.
For AELLAACFA, the IC50 [2, 12] was 585 nM, the IC50 [3, 12] was 50 nM and the IC50 [4, 12] was 332 nM. For the same sequence, the IC50 [5, 12] was 59 nM, the IC50 [6, 12] was 6.6 nM and the Kd [9] was 13500 nM.
Work on AELLAACF yielded an IC50 [2, 12] of 734 nM, an IC50 [3, 12] of 93 nM and an IC50 [4, 12] of 9.3 nM. For the same sequence, the IC50 [5, 12] was 27 nM and the IC50 [6, 12] was 247 nM.
DEFKPIVQY gave an IC50 [1, 11] of 3.9 nM, an IC50 [4, 11] of 12 nM and an IC50 [5, 11] of 401 nM.
AEAALENLV gave an IC50 [2, 14] of 245 nM, an IC50 [3, 14] of 107 nM and an IC50 [5, 14] of 309 nM. It also gave an IC50 [6, 14] of 35 nM.
For RENANQLVV, the IC50 [1, 11] was 757 nM, the IC50 [2, 11] was 174 nM and the IC50 [3, 11] was 20 nM. It also gave an IC50 [4, 11] of 638 nM, an IC50 [5, 11] of 480 nM and an IC50 [6, 11] of 37 nM.
Sequence QEILDLWVY has an IC50 [1, 13] of 52 nM, an IC50 [2, 13] of 739 nM and an IC50 [3, 13] of 4520 nM. The IC50 [4, 13] was 264 nM, the IC50 [5, 13] was 172 nM and the Kd [8, 13] was 6260 nM.
NELNYDNAGI gave an IC50 [1, 11] of 4610 nM, an IC50 [2, 11] of 4130 nM and an IC50 [4, 11] of 105 nM. For the same sequence, the IC50 [5, 11] was 72 nM, the IC50 [6, 11] was 457 nM and the Kd [10] was ≥ 23600 nM.
